Measurements published in patent publication US20180222987A1.
Numbering of substitutions follows the chain as printed.

B1: humanized 4B4 Fab 4B4_5 (VL2C / VH6D) (Fab, V domains shown)
VH: QVQLVESGGGVVQPGRSLRLSCATSGFTFSNAWMHWVRQAPGKQLEWVAQIKARSNNYATYYADSVKGRFTISRDDSKSTIYLQMNSLRAEDTAVYYCRGTYYASKPFDYWGQGTLVTVSS
VL: DIVMTQTPLSLSVTPGQPASISCKSSQSLVHDNGNTYLSWSLQKPGQSPQVLIYKVSNRFSGVPDRFSGSGSGTDFTLKISRVEAEDVGVYYCGQGTQYPFTFGSGTKLEIK
B2: humanized 4B4 Fab 4B4_11 (VL1_CM3 / VH6_BM2) (Fab, V domains shown)
VH: B1 VH with G10R, S21T, T24A, D64E, L116T
VL: B1 VL with I2V, T7S, P15L, A19V, K24R, G34A, K44R, Q50R
B3: humanized 4B4 Fab 4B4_10 (VL1_CM2 / VH6_BM2) (Fab, V domains shown)
VH: B1 VH with G10R, S21T, T24A, D64E, L116T
VL: B1 VL with I2V, T7S, P15L, A19V, K24R, K44R, Q50R
B4: humanized 4B4 Fab 4B4_9 (VL2B / VH2A) (Fab, V domains shown)
VH: EVQLVETGGGLVQPGGSLKLTCATSGFTFSNAWMHWVRQSPEKGLEWVAQIKARSNNYATYYAESVKGRFTISRDDSKSTIYLQMNSLRAEDTAIYYCRGTYYASKPFDYWGQGVMVTVSS
VL: DVVMTQTPVSLSVSPGGPVSISCRSSQSLVHDNANTYLSWSLQKPGQSPQVLIYKVSNRFSGVSDRFTGSGSGTDFTLKISRVEPDDLGVYYCGQGTQYPFTFGSGTKLEIK
B5: humanized 4B4 Fab 4B4_1 (VL1a / VH1B) (Fab, V domains shown)
VH: B4 VH with E1Q, Q13K, G16Q, E64V, R89T, A90P
VL: B4 VL with P15V, P18R, A34G, Q47K, Q50K, D65S, R82S, E84Q
B6: humanized 4B4 Fab 4B4_2 (VL1b / VH1B) (Fab, V domains shown)
VH: B4 VH with E1Q, Q13K, G16Q, E64V, R89T, A90P
VL: B4 VL with P15V, P18R, Q47K, Q50K, D65S, R82S, E84Q
B7: humanized 4B4 Fab 4B4_7 (VL1b / VH1A) (Fab, V domains shown)
VH: B4 VH with E1Q, Q13K, G16Q, R89T, A90P
VL: B4 VL with P15V, P18R, Q47K, Q50K, D65S, R82S, E84Q
B8: humanized 4B4 Fab 4B4_6 (VL1a / VH1A) (Fab, V domains shown)
VH: B4 VH with E1Q, Q13K, G16Q, R89T, A90P
VL: B4 VL with P15V, P18R, A34G, Q47K, Q50K, D65S, R82S, E84Q
B9: 6C9-C9 anti-CD3 antibody (antibody, V domains shown)
VH: AVQLVESGGGLVRPKESLKISCAASGFTFRNAAMYWVRQAPGKGLEWVARIRTQPNNYAKYYADSVKDRFTISRDDSKSMVYLQMDNLKTEDTAMYYCTGLVVTAMDAWGQGTSVTVSS
VL: DIQMTQSPSFLSASVGDRVTINCKASQNINKYLNWYQQKLGEAPKLLIYVTNNLQTGIPSRFSGSGSGTDYTLTISSLQPEDVATYFCLQHRSMYTFGTGTKLELK
B10: 12D2-E5 anti-CD3 antibody (antibody, V domains shown)
VH: EVKLVESGGGLVQPGRSLRLSCAASGFNFYAYWMGWVRQAPGKGLEWIGEIKKDGTTINYTPSLKDRFTISRDNAQNTLYLQMTKLGSEDTALYYCAREERDGYFDYWGQGVMVTVSS
VL: QFVLTQPNSVSTNLGSTVKLSCKRSTGNIGSNYVNWYQQHEGRSPTTMIYRDDKRPDGVPDRFSGSIDRSSNSALLTINNVQTEDEADYFCQSYSSGIVFGGGTKLTVL
B11: 13H2-C3 anti-CD3 antibody (antibody, V domains shown)
VH: EEELVETGGSLVQPGKSLKLTCATSGFTFSNAWMHWVRQSPDKQLEWVAQIKAKSNNYATYYAESVKGRFTISRDDSKSSVYLQMNNLKEEDTAIYYCRYVHYGLAPMDAWGQGTSVTVSS
VL: DVVMTQTPVSLSVSLGGQVSISCRSSQSLVHNNGNTYLSWYLQKAGQSPQLLIYKVSNRFSGISDRFSGSGSGTDFILKISRVEPDDLGVFYCGQGTQYPFTFGAGTKLELK
B12: 11F9-F8 anti-CD3 antibody (antibody, V domains shown)
VH: EVQLVETGGTLVQPGKSLKLTCATSGFTFSNAWMHWVRQSPEKQLEWVAQIKAKSNNYATYYAESVKGRFTISRDDSKTSVYLQLNSLREEDTAIYYCRGTQYGYNPFDYWGQGVMVTVSS
VL: B4 VL with M4L, P15L, P18Q, D32N, A34G, V63I, D65N, T68S, T97A, Q98H
B13: 13C1-F6 anti-CD3 antibody (antibody, V domains shown)
VH: B12 VH
VL: B11 VL with T7S, K44R, A45S, F60L, I77T, V83I, F91Y, A105S, K108R, L111I
B14: 3H6-D2 anti-CD3 antibody (antibody, V domains shown)
VH: EVQLVETGGRLVQPGKSLKLTCATSGFTFSNAWMHWVRQSPEKQLEWVAQIKDKSNNYATYYAESVKGRFTISRDDSKSIIYLQMNSLKEEDTAIYYCRALTYYGYKRDAMDGWGHGTSVTVSS
VL: B11 VL with A45P, I77T, F91Y
B15: 11F3-B9 anti-CD3 antibody (antibody, V domains shown)
VH: B11 VH with E2V, E3Q, K19T, D42E, S79R, N87S, H102N, A110V
VL: B11 VL with N32D, A45P, I63F, I77T, F91Y
B16: 10F4-C10 anti-CD3 antibody (antibody, V domains shown)
VH: EVQLVETGGSLVQPGKSLKITCATSGFTFSNAWMHWVRQSPEKQLEWVAQIKAKSNNYATYYAESVKGRFTISRDDSKSSIYLQMNSLKEEDTAIYYCRAVNYGNYPLDYWGQGVMVTVSS
VL: B11 VL with Y41C, A45P, I77T, F91Y
B17: 5B1-G2 anti-CD3 antibody (antibody, V domains shown)
VH: EVQVVETGGSLVQPGKSLKLTCATSGFSFSNAWMHWVRQSPEKQLEWVAQIKDKANNYATYYAESVKGRFTISRDDSKGSIYLQMNSLKEEDTAVYYCRGLYYGLFPSDYWGQGVMVTVSS
VL: B11 VL with Q43L, A45P, S70G, I77T, V83L, V90I, F91Y, A105S, L111I
B18: 11D7-C3 anti-CD3 antibody (antibody, V domains shown)
VH: B17 VH with V4F, S28T, D53A, A55S, G79S, I81V, V95T, F106S
VL: B11 VL with A45P, I77T, F91Y, Q98H, A105S, L111I
B19: 16F8-A7 anti-CD3 antibody (antibody, V domains shown)
VH: VETGGNLVQPGKSLKLTCATSGFTFSNAWMHWVRQSPEKQLEWVAQIKAKSNNYATYYAESVKGRFTISRDDSKSSVYLQMNSLKEEDTAIYYCRYVNYGLAPMDVWGQGTSVTVSS
VL: B11 VL with A45P, I63F, I77T, F91Y
B20: 4E7-C9 anti-CD3 antibody (antibody, V domains shown)
VH: EVQVVETGGSLVQPGKSLKLTCATSGFTFSNAWMHWVRQSPEKQLEWVAQIKDKSNNYATYYAESLKGRFTISRDDPKRSIYLQMNSLREEDTAIYYCRYVHYGIGYAMDAWGQGTSVTVSS
VL: B11 VL with V30E, A45P, L51P, I77T, F91Y, A105P
B21: 18G9-H11 anti-CD3 antibody (antibody, V domains shown)
VH: EVQLVETGGSLVQPGKSLKLTCATSGFTFSNAWIQWVRQSPEKQLEWVAQIKAKSNNYATYYAESVKGRFTISRDDSKSSVYLQMNSLKEEDTALYYCTWRHYYSSHTMDAWGQGTLVTVSS
VL: B11 VL with A45P, I77T, E84A, D86T, F91Y, T97S
B22: 10E6-G6 anti-CD3 antibody (antibody, V domains shown)
VH: B12 VH with T10G, P14S, F29V, S30T, A59E, T79S, L85M, R89K
VL: DVVMTQSPVSLSVSLGGQVSISCRSSQSLVHNNGYTYLSWYLQKPGQSPQVFIYKVSNRFSGISDRFSGSGSGTDFTLKISRIEPDDLGVYYCGQGTHYPFTFGSGTKLEIK
B23: 20E5-F10 anti-CD3 antibody (antibody, V domains shown)
VH: EVQLVETGENLVQPGKSLRLTCATSGFSFSNAWMHWIRQSPEKQLEWVAQIKDKSNNYATYYAESVNGRFTISRDDSKSSIYLHMDNLKEEDSAIYYCRYVHYGVRFFYTMDVWGQGTSVTVSS
VL: B22 VL with S7T, G17D, S25P, Y35N, Q50H, V51P, F52L, I83V, H98Q
B24: 12G3-E8 anti-CD3 antibody (antibody, V domains shown)
VH: EVRVVETGGSLVQPGKSLKLTCATSGFTFSLAWMHWVRQSPEKKLEWVAQIKDKANNYATYYAESVKGRFTISRDDSKRSVYLQMNRLKEEDTAIYYCRGVYYGFSMTPFDYWGQGVMVTVSS
VL: B11 VL with V3A, A45P, L51V, T74A, I77T, F91Y
B25: 4B4-D7 anti-CD3 antibody (antibody, V domains shown)
VH: B4 VH with G10R, G16R, G44Q, R89K, A90E
VL: B4 VL with P15L, P18Q, A34G, K44R, V63T
B26: 18H11-F10 anti-CD3 antibody (antibody, V domains shown)
VH: EVQLVESGGGLVQPGRSLKLSCAASGFIFSDYYMAWVRQAPKKGLEWVATISISGSRTYYPDSVKGRFTVSRDNAKSSLYLQMNSLKSEDTATYYCATNNPGGWFVYWGQGTLVTVSS
VL: NIQMTQSPSLLSASVGDRVTLSCKAGQNINNDLAWYQQKLGEAPRLLIYNANSLQTGIPSRFSGSGSGADFTLTISSLQPEDVATYFCQQYSSGDTFGAGTKLELK
B27: 8H2-F3 anti-CD3 antibody (antibody, V domains shown)
VH: QIQLVQSGPELKKPGESVKISCKASGYTFTDFAMNWVKQAPGNGLKWMGWINTQTGKPTYADGFKQRFVFSLETSASTIYLQINNLNIEDTATYFCTRGALASVGQGVMVTVSS
VL: DVVMTQTPVSLSVAIGQPASISCKSSQSLVGTSGKTYLNWLLQRPGQSPKRLIYLVSKLDSGIPDRFSGSGSETDFTLKISRVETDDLGVYYCLQGSHFPLTFGSGTKLEIK

These binders were tested against Macaca fascicularis CD3ε/δ-Fc fusion heterodimer (Macaca fascicularis) (UniProt Q95LI8) (assay: SPR Biacore, Fab; unit inferred).
Macaca fascicularis CD3ε/δ-Fc fusion heterodimer (Macaca fascicularis), sequence (chain, as listed by the source mutant, chain 1 of 2): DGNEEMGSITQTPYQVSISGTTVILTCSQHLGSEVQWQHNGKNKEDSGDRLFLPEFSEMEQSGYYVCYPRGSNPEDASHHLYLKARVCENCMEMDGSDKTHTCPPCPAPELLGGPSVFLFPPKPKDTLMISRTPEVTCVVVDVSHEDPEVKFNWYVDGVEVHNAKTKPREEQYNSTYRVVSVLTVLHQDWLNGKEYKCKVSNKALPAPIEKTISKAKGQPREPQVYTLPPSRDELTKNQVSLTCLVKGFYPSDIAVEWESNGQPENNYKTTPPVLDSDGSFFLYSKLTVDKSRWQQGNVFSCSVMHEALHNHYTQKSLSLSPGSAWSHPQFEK
Macaca fascicularis CD3ε/δ-Fc fusion heterodimer (Macaca fascicularis), sequence (Q95LI8 22-105, stated change not applied, chain 2 of 2): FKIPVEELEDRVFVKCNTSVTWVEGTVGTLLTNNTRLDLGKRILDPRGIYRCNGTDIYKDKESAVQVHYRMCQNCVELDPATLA

Kd | Binder
16.6 nM | B1
20.4 nM | B2
8.94 nM | B3
12.1 nM | B4
3.13 nM | B5
7.57 nM | B6
7.28 nM | B7
1.19 nM | B8

What follows are binders tested against Macaca fascicularis CD3ε/δ-Fc fusion heterodimer (Macaca fascicularis) (UniProt Q95LI8) (assay: SPR single point, hybridoma supernatant).

RU at 25 nM | Binder
32 RU | B9
5 RU | B10
7 RU | B11
16 RU | B12
15.5 RU | B13
7 RU | B14
17 RU | B15
27 RU | B16
0.5 RU | B17
10 RU | B18
22.5 RU | B19
10 RU | B20
-7 RU | B21
0 RU | B22
8 RU | B23
17 RU | B24
14 RU | B25
55 RU | B26
40 RU | B27
